T1: AF9 (UniProt P42568 1-568)
T1 construct: AF9 (MLLT3), a YEATS domain-containing protein
T1 sequence (looked up): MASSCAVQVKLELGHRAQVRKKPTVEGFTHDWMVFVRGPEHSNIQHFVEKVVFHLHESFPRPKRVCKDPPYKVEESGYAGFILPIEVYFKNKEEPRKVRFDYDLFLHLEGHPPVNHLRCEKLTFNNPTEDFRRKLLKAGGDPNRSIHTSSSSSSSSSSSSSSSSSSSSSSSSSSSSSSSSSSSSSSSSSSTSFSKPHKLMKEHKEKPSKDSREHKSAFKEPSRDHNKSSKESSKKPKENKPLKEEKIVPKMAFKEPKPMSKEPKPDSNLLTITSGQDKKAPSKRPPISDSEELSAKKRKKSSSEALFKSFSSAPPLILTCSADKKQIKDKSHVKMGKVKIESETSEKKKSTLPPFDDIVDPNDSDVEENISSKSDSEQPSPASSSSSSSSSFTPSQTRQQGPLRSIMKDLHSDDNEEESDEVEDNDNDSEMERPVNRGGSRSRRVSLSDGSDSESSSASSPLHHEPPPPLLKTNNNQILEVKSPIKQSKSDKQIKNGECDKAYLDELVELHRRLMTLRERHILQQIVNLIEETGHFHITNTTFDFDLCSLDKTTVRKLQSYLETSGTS

B1: ENL (endogenous) (natural protein)
chain: MDNQCTVQVRLELGHRAQLRKKPTTEGFTHDWMVFVRGPEQCDIQHFVEKVVFWLHDSFPKPRRVCKEPPYKVEESGYAGFIMPIEVHFKNKEEPRKVCFTYDLFLNLEGNPPVNHLRCEKLTFNNPTTEFRYKLLRAGGVMVMPEGADTVSRPSPDYPMLPTIPLSAFSDPKKTKPSHGSKDANKESSKTSKPHKVTKEHRERPRKDSESKSSSKELEREQAKSSKDTSRKLGEGRLPKEEKAPPPKAAFKEPKMALKETKLESTSPKGGPPPPPPPPPRASSKRPATADSPKPSAKKQKKSSSKGSRSAPGTSPRTSSSSSFSDKKPAKDKSSTRGEKVKAESEPREAKKALEVEESNSEDEASFKSESAQSSPSNSSSSSDSSSDSDFEPSQNHSQGPLRSMVEDLQSEESDEDDSSSGEEAAGKTNPGRDSRLSFSDSESDNSADSSLPSREPPPPQKPPPPNSKVSGRRSPESCSKPEKILKKGTYDKAYTDELVELHRRLMALRERNVLQQIVNLIEETGHFNVTNTTFDFDLFSLDETTVRKLQSCLEAVAT
B2: β-hydroxybutyryl histone H3 1-17 peptide (H3K9bhb) (peptide, UniProt P68431 2-18, looked up)
peptide: ARTKQTARKSTGGKAPR
modifications: β-hydroxybutyryl-lysine at K9
notes: histone H3, residues 1-17; The text calls the ITC peptides 'histone H3K14 (1–17) peptides', the legend 'H31-17 peptides'; also called H3K9bhb peptide; source: synthetic peptide (Beijing SciLight Biotechnology, HPLC purified)

Columns and labels:
[1] = target: Probe H3K9bhb (Kbhb-installed histone H3 peptide on gold nanoparticles with photo-cross-linker-linked PEG); test: affinity purification with mass spectrometry; photoaffinity enrichment with probes H3K9bhb and H3K9, read out by parallel reaction monitoring (PRM) mass spectrometry
GAS41 = target: T2, GAS41 (UniProt O95619 1-227); test: ITC; MicroCal PEAQ ITC, 15°C; protein at 100 μM dropped into the 1000 μM peptide, 19 drops; one set of binding sites model; settings: both partners purified
T2 construct: GAS41 (YEATS4), a YEATS domain-containing protein
T2 sequence (O95619 whole entry, the tested form may be a part): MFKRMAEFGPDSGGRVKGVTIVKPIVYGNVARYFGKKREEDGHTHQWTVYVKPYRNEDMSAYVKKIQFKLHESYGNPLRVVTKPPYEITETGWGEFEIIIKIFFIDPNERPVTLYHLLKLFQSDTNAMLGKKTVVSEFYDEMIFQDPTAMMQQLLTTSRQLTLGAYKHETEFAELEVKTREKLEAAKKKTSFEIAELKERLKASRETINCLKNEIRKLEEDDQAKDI

AF9 = target: T1, AF9; test: as above; settings: both partners purified

Binder | fold enrichment over probe H3K9 [1] [fold] | Kd (GAS41) [µM] | Kd (AF9) [µM]
B1 | 3.9 |  | 
B2 |  | 6.7 | 11

— paper PMC11417371, “ENL reads histone β-hydroxybutyrylation to modulate gene transcription” (Nucleic Acids Research, 2024)
